# Data as given in paper PMC9888390 (2023).
# B1: BMPC-23 recombinant mouse IgG (antibody, V domains shown)
# VH: QVQLQQSGPELVKPGASVKLSCKASGYSFTTYDINWVKERPGQGLEWIGWIYPREGSTNYNEKFRGKATLTADTSSSTAYMELHSLTSEDSAVYFCATYGSSRYYTMDYWGQGTSVTVSS
# VL: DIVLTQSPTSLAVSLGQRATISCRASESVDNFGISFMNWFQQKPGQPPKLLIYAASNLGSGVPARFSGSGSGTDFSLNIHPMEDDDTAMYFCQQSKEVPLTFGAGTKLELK
# Biological target: Recombinant HSV-1 glycoprotein B, soluble ectodomain (HSV-1)
# Assay: Luminex binding assay
binder,measurement,value
B1,EC50,3.5 ng/mL
